Measured values: the supplement of paper PMC9732359
± gives the uncertainty stated by the source.

Assay: protein stability index of a GFP-peptide fusion (yeast GPS) (PSI 1-4); higher = more stable; sorted into four equal gates, so the index is relative within each strain
Summary of the method: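 Plasmids isolated from each sorting gate were PCR-amplified and Illumina-sequenced, and barcodes assigned the reads to strains. The gates, four of equal size, were set by GFP/Cherry fluorescence ratio on mid-log cultures in leucine-free medium. These cultures were yeast carrying a pooled library of tiled 17-residue yeast protein peptides fused downstream of GFP on a plasmid that also expresses Cherry. The protein stability index is the sum of every gate's read frequency times its gate number.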

SSHAKGIVLEKLGIESK [RPS23A]
protein stability index (doa10∆): 3.02 ± 0.15 | protein stability index (pdr5∆): 2.88 ± 0.13 | protein stability index (san1∆): 2.67 ± 0.095 | protein stability index (ubr1∆): 3.17 ± 0.17

INGEDPANNHQLGLQTV [SMX2]
protein stability index (doa10∆): 2.93 ± 0.11 | protein stability index (pdr5∆): 2.94 ± 0.1 | protein stability index (san1∆): 2.9 ± 0.073 | protein stability index (ubr1∆): 3.08 ± 0.06

AMQYVCGDSIICNTLNI [SMC1]
protein stability index (doa10∆): 1.57 ± 0.072 | protein stability index (pdr5∆): 1.65 ± 0.065 | protein stability index (san1∆): 1.5 ± 0.1 | protein stability index (ubr1∆): 1.51 ± 0.071

KRHRSSYYDNDLDETTQ [YML031W/NDC1]
protein stability index (doa10∆): 2.8 ± 0.065 | protein stability index (pdr5∆): 2.76 ± 0.071 | protein stability index (san1∆): 2.68 ± 0.053 | protein stability index (ubr1∆): 2.71 ± 0.071

GKLVVSQEMVPRYFSEA [SIR3]
protein stability index (doa10∆): 3.31 ± 0.086 | protein stability index (pdr5∆): 3.43 ± 0.17 | protein stability index (san1∆): 3.38 ± 0.079 | protein stability index (ubr1∆): 3.21 ± 0.12

DPFSDVDDDQDYVVAPG [GRR1]
protein stability index (doa10∆): 2.56 ± 0.12 | protein stability index (pdr5∆): 2.17 ± 0.2 | protein stability index (san1∆): 1.74 ± 0.19 | protein stability index (ubr1∆): 3.55 ± 0.24

IIDEIKCIPKKGTVFQF [POP4]
protein stability index (doa10∆): 1.6 ± 0.13 | protein stability index (pdr5∆): 1.56 ± 0.074 | protein stability index (san1∆): 1.86 ± 0.28 | protein stability index (ubr1∆): 1.3 ± 0.048

ITHYAVRGGNIEIMGIL [RRI1]
protein stability index (doa10∆): 2.85 ± 0.1 | protein stability index (pdr5∆): 2.54 ± 0.097 | protein stability index (san1∆): 2.79 ± 0.095 | protein stability index (ubr1∆): 2.25 ± 0.13

EEASQQQQLQQNSKEKN [MED2]
protein stability index (doa10∆): 2.85 ± 0.092 | protein stability index (pdr5∆): 2.85 ± 0.086 | protein stability index (san1∆): 2.92 ± 0.071 | protein stability index (ubr1∆): 2.83 ± 0.065

LSCVKNDTISEDILQGI [NUT1]
protein stability index (doa10∆): 2.69 ± 0.067 | protein stability index (pdr5∆): 2.35 ± 0.073 | protein stability index (san1∆): 2.53 ± 0.11 | protein stability index (ubr1∆): 3.17 ± 0.076

EIEDGQDGGVTPYSNES [RPO21]
protein stability index (doa10∆): 3.49 ± 0.1 | protein stability index (pdr5∆): 3.35 ± 0.069 | protein stability index (san1∆): 3.38 ± 0.049 | protein stability index (ubr1∆): 3.22 ± 0.08

TNAKLPNVDLVTALEVL [RGR1]
protein stability index (doa10∆): 2.09 ± 0.089 | protein stability index (pdr5∆): 2.28 ± 0.052 | protein stability index (san1∆): 2.44 ± 0.07 | protein stability index (ubr1∆): 2.26 ± 0.061

FEIVDREKNSLESGKET [SMC4]
protein stability index (doa10∆): 3.31 ± 0.26 | protein stability index (pdr5∆): 3.16 ± 0.18

TRALQISMNAPVFVDLE [RPO26]
protein stability index (ubr1∆): 3 ± 0.19

QQQQQQQQQQQHIYPSS [GAL11]
protein stability index (doa10∆): 2.691 ± 0.02 | protein stability index (pdr5∆): 2.78 ± 0.02 | protein stability index (san1∆): 2.693 ± 0.017 | protein stability index (ubr1∆): 2.811 ± 0.018

KLHEFYLLISKENKKRK [IRR1]
protein stability index (doa10∆): 2.96 ± 0.081 | protein stability index (pdr5∆): 2.65 ± 0.066 | protein stability index (san1∆): 2.89 ± 0.051 | protein stability index (ubr1∆): 3.04 ± 0.067

IKCSQSSHLSDNDFIIN [POP5]
protein stability index (doa10∆): 2.96 ± 0.09 | protein stability index (pdr5∆): 2.85 ± 0.059 | protein stability index (san1∆): 2.66 ± 0.059 | protein stability index (ubr1∆): 2.55 ± 0.041

TVDVSSPTENGVFDPAS [RPL22A]
protein stability index (doa10∆): 3.06 ± 0.054 | protein stability index (pdr5∆): 3.17 ± 0.064 | protein stability index (san1∆): 2.69 ± 0.057 | protein stability index (ubr1∆): 2.87 ± 0.042

GVVQMVTDNKTPEMNVT [TAF14]
protein stability index (doa10∆): 2.78 ± 0.16 | protein stability index (pdr5∆): 2.67 ± 0.22 | protein stability index (san1∆): 3.33 ± 0.092

IIDAKTRNEQTTIQTEK [MCD1]
protein stability index (doa10∆): 3.19 ± 0.093 | protein stability index (pdr5∆): 3.23 ± 0.082 | protein stability index (san1∆): 2.91 ± 0.17 | protein stability index (ubr1∆): 3.01 ± 0.06

AVKTAETGYMSRRLMKS [RPO31]
protein stability index (doa10∆): 2.33 ± 0.13 | protein stability index (san1∆): 2.52 ± 0.25

PPGLDALVKPETQFKLS [CDC53]
protein stability index (doa10∆): 2.82 ± 0.058 | protein stability index (pdr5∆): 2.84 ± 0.055 | protein stability index (san1∆): 3.07 ± 0.036 | protein stability index (ubr1∆): 2.99 ± 0.046

IVDPTAEQLKISLSVHT [RRP46]
protein stability index (doa10∆): 1.64 ± 0.042 | protein stability index (pdr5∆): 1.81 ± 0.044 | protein stability index (san1∆): 2.34 ± 0.057 | protein stability index (ubr1∆): 2.04 ± 0.043

ESHIDSRNNTLNVTPSK [SIR4]
protein stability index (doa10∆): 2.77 ± 0.045 | protein stability index (pdr5∆): 2.62 ± 0.038 | protein stability index (san1∆): 2.75 ± 0.046 | protein stability index (ubr1∆): 2.63 ± 0.033

TIKISTNDDSIKNLTVQ [RGR1]
protein stability index (doa10∆): 2.88 ± 0.13 | protein stability index (pdr5∆): 3.05 ± 0.1 | protein stability index (san1∆): 2.9 ± 0.074 | protein stability index (ubr1∆): 2.96 ± 0.14

MSTDSIVKASNWRLVEV [RPL14A]
protein stability index (doa10∆): 2.82 ± 0.1 | protein stability index (pdr5∆): 1.44 ± 0.13 | protein stability index (ubr1∆): 1.71 ± 0.087

SSTPKFTKKPVTPNDKI [SIR4]
protein stability index (doa10∆): 2.96 ± 0.11 | protein stability index (pdr5∆): 2.89 ± 0.07 | protein stability index (san1∆): 2.96 ± 0.062 | protein stability index (ubr1∆): 3.08 ± 0.054

DGWVKLTYKSELSKSRA [YMR153W/NUP53]
protein stability index (doa10∆): 1.85 ± 0.062 | protein stability index (pdr5∆): 1.88 ± 0.04 | protein stability index (san1∆): 1.95 ± 0.083 | protein stability index (ubr1∆): 1.84 ± 0.032

VFGTIIPKISDYIEFNI [YJL039C/NUP192]
protein stability index (doa10∆): 2.05 ± 0.17 | protein stability index (pdr5∆): 1.68 ± 0.22 | protein stability index (ubr1∆): 1.61 ± 0.26

MKQLKFFKPLDYITEAV [SNU114]
protein stability index (doa10∆): 2.12 ± 0.043 | protein stability index (pdr5∆): 2.05 ± 0.052 | protein stability index (san1∆): 1.86 ± 0.082 | protein stability index (ubr1∆): 1.92 ± 0.036

DNSFNELTDNMSDFVPI [MCD1]
protein stability index (doa10∆): 2.95 ± 0.082 | protein stability index (pdr5∆): 3 ± 0.089 | protein stability index (san1∆): 2.92 ± 0.052 | protein stability index (ubr1∆): 3.23 ± 0.064

LQAQDRAHRIGQKNEVR [SNF2]
protein stability index (doa10∆): 3 ± 0.065 | protein stability index (pdr5∆): 3.17 ± 0.077 | protein stability index (san1∆): 2.86 ± 0.073 | protein stability index (ubr1∆): 3.18 ± 0.063

FDNFLTEEELQAAVPDN [BRN1]
protein stability index (doa10∆): 2.93 ± 0.071 | protein stability index (pdr5∆): 2.71 ± 0.071 | protein stability index (san1∆): 2.54 ± 0.068 | protein stability index (ubr1∆): 2.65 ± 0.051

MVMAGSKGSFINIAQMS [RPO21]
protein stability index (doa10∆): 1.43 ± 0.054 | protein stability index (pdr5∆): 1.67 ± 0.049 | protein stability index (san1∆): 1.25 ± 0.083 | protein stability index (ubr1∆): 1.42 ± 0.05

SDNNSRIMSRNFYLKRF [SWI1]
protein stability index (doa10∆): 2.73 ± 0.066 | protein stability index (pdr5∆): 2.67 ± 0.079 | protein stability index (san1∆): 2.95 ± 0.099 | protein stability index (ubr1∆): 3.09 ± 0.063

AYELRTKSKEQLASQLV [RPL35A]
protein stability index (doa10∆): 3.02 ± 0.11 | protein stability index (pdr5∆): 3.29 ± 0.091 | protein stability index (san1∆): 2.93 ± 0.067 | protein stability index (ubr1∆): 3.15 ± 0.13

PVEKVKEHDEIEEQGDA [DPB4]
protein stability index (doa10∆): 3.19 ± 0.095 | protein stability index (pdr5∆): 3.34 ± 0.12 | protein stability index (ubr1∆): 3.5 ± 0.11

LCRNPLTSGLLYSYLIK [YJL039C/NUP192]
protein stability index (doa10∆): 2.07 ± 0.064 | protein stability index (pdr5∆): 1.84 ± 0.06 | protein stability index (san1∆): 1.67 ± 0.088 | protein stability index (ubr1∆): 1.53 ± 0.036

KISEDPVKALNECIAST [SNF12]
protein stability index (doa10∆): 2.37 ± 0.17 | protein stability index (pdr5∆): 2.86 ± 0.12 | protein stability index (san1∆): 2.62 ± 0.068 | protein stability index (ubr1∆): 2.82 ± 0.097

HVKRITKIAQSQTMAET [ECM29]
protein stability index (doa10∆): 2.33 ± 0.057 | protein stability index (pdr5∆): 2.46 ± 0.036 | protein stability index (san1∆): 2.02 ± 0.061 | protein stability index (ubr1∆): 2.07 ± 0.033

MQTALRRLPEDESYARA [QCR7]
protein stability index (doa10∆): 2.78 ± 0.058 | protein stability index (pdr5∆): 2.5 ± 0.066 | protein stability index (san1∆): 2.34 ± 0.05 | protein stability index (ubr1∆): 2.39 ± 0.044

KASTISRGAVSGQKAGL [RPL2A]
protein stability index (doa10∆): 2.46 ± 0.044 | protein stability index (pdr5∆): 2.36 ± 0.055 | protein stability index (san1∆): 2.67 ± 0.055 | protein stability index (ubr1∆): 2.87 ± 0.046

RVVRPKSLDAETEAEED [RPO21]
protein stability index (doa10∆): 2.25 ± 0.19 | protein stability index (pdr5∆): 1.21 ± 0.13 | protein stability index (san1∆): 1.21 ± 0.19 | protein stability index (ubr1∆): 1.31 ± 0.29

SLLDAEEERRKKRESGV [SNF2]
protein stability index (doa10∆): 3.47 ± 0.08 | protein stability index (pdr5∆): 3.32 ± 0.1 | protein stability index (ubr1∆): 3.47 ± 0.047

AEFKKENLADLDYQIGN [LIN1]
protein stability index (doa10∆): 3.29 ± 0.086 | protein stability index (pdr5∆): 3.32 ± 0.068 | protein stability index (san1∆): 3.24 ± 0.057 | protein stability index (ubr1∆): 3.26 ± 0.071

TSLTSIKWENAFVSVYS [PRP8]
protein stability index (doa10∆): 2.94 ± 0.07 | protein stability index (pdr5∆): 2.62 ± 0.07 | protein stability index (san1∆): 3 ± 0.08 | protein stability index (ubr1∆): 2.67 ± 0.038

LDTQLNDLRVSLNEKNA [SMC1]
protein stability index (doa10∆): 3.03 ± 0.11 | protein stability index (pdr5∆): 3.13 ± 0.082 | protein stability index (san1∆): 3.41 ± 0.064 | protein stability index (ubr1∆): 3.14 ± 0.09

VEYNLFTNRSTMMANFE [BRN1]
protein stability index (doa10∆): 2.11 ± 0.18 | protein stability index (pdr5∆): 2.4 ± 0.18 | protein stability index (san1∆): 2.37 ± 0.095 | protein stability index (ubr1∆): 2.65 ± 0.053

FVDLVEHFLKLNIDFGS [YML103C/NUP188]
protein stability index (doa10∆): 2.53 ± 0.067 | protein stability index (pdr5∆): 2.46 ± 0.06 | protein stability index (san1∆): 2.54 ± 0.11 | protein stability index (ubr1∆): 2.84 ± 0.094

RPGRIDRKIEFPPPSVA [RPT6]
protein stability index (doa10∆): 3.21 ± 0.072 | protein stability index (pdr5∆): 3.26 ± 0.07 | protein stability index (san1∆): 3.05 ± 0.054 | protein stability index (ubr1∆): 3.25 ± 0.048

NGFHGRLGDLGVIDDSF [SMC4]
protein stability index (doa10∆): 3.51 ± 0.17 | protein stability index (pdr5∆): 3.35 ± 0.11 | protein stability index (san1∆): 3.11 ± 0.12 | protein stability index (ubr1∆): 3.46 ± 0.057

LFGQSQQPQTNTAPGLG [YGR119C/NUP57]
protein stability index (doa10∆): 2.68 ± 0.2 | protein stability index (pdr5∆): 2.88 ± 0.27 | protein stability index (san1∆): 3.14 ± 0.16 | protein stability index (ubr1∆): 2.97 ± 0.092

DLYHFALNYENEAGRKL [SNF2]
protein stability index (doa10∆): 2.94 ± 0.16 | protein stability index (pdr5∆): 3.13 ± 0.098 | protein stability index (san1∆): 3.26 ± 0.083 | protein stability index (ubr1∆): 3.76 ± 0.26
